# From paper PMC4666033, “A novel bifunctional GH51 exo-α-L-arabinofuranosidase/endo-xylanase from Alicyclobacillus sp. A4 with significant biomass-degrading capacity” (Biotechnology for Biofuels, 2015)
# B1: Ac-Abf51A (Alicyclobacillus sp. A4) (protein)
# chain: MSKSIARMTIDPQYQLADVDPRLFGSFIEHLGRAVYGGIYEPDHPSADEMGFRQDVLELVRELQVPIVRYPGGNFVSGYRWEDGVGPLASRPAQLDLAWRSLEPNRVGVNEFVEWAKRANSEVMMAVNLGTRGIDEAKQIVEYCNHPGGSYWSDLRKSHGYEQPHGIKVWCLGNEMDGPWQIGHKTAEEYGRIAEEAAKVMKWVDPSIELVACGSSGSKMPTFPDWERIVLEHTYDHVEYISMHSYYGNRENDLATYLAQSLDMDHFIRSVIATCDYVKAKKRSKKTINISFDEWNVWFHSNEADKQVAPWQVGPPLLEDVYTFEDALVVGCLLITLLRHADRVKMACLAQLVNVIAPIMTENGGVSWKQTIYYPFLHASRYGRGKVMHCSLQSPKYDCKEFTDVPLVESVAVWNQDIAELTIFAVNRSQDGGIELECDIRGFAQASVIEHTVLVHSDLKAANTKEEPQEVIPQHAQGAKVDGGLLFAPLPKLSWNVIRLRV
# notes: no signal peptide; pET-30a(+) NdeI/NotI, C-terminal His tag inferred from cloning; E. coli BL21(DE3); Ni-NTA
# Substrate: O=[N+]([O-])c1ccc(O[C@@H]2O[C@@H](CO)[C@H](O)[C@H]2O)cc1
# Assay: purified protein
# Assay type: biochemical, Alicyclobacillus sp. A4
# Conditions: pH 6.0, McIlvaine buffer, 60 °C, 5 min, substrate 1-10 mM
protein,measurement,value
B1,Km,0.46 mM
same,kcat,23.0 s⁻¹
